In the supplement of paper PMC10126150:
± gives the standard deviation of the averaged measurements.

Test system: ATP
Experiment: switch fluorescence ratio, 500 uM ATP over buffer (Cy3 cluster intensity, sum of 5 cycles each) (fold (ratio)); higher = stronger signal-on switching upon ATP binding; sequences stand for … in TCGTCGGCAGCGTCAGATGTGTATAAGAGACAGTTTTTTTTTTTTTTTTTTTTTTTTT…TC
Conditions: aptamer strand: ATP DNA aptamer (quencher-CACCTGGGGGAGTATTGCGGAGGAAGG + anchor), 100 nM annealed; ATP concentration: 500 uM
Method in brief: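 Exposure to 500 uM ATP lasted 15 min at 22 °C before imaging, and a selection-buffer image was taken beforehand, for Cy3-labelled switching-strand clusters on a modified Illumina MiSeq flow-cell annealed to 100 nM quencher-labelled ATP aptamer. Five buffer/ATP cycles were run with NaOH stripping and re-annealing between them. The fluorescence ratio per cluster is summed target-cycle over summed buffer-cycle Cy3 intensity, averaged per switch-domain sequence. Clusters outside 100-1000 RFU were excluded.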

Sequence	switch fluorescence ratio
AGGGGGCGGC	0.995 ± 0.031
AGGGGGGACG	0.915 ± 0.098
AGGGGGGTCT	1.01 ± 0.04
AGGGGGGTGA	1.017 ± 0.0015
AGGGGGGTTA	0.984 ± 0.04
AGGGGGTAAG	0.988 ± 0.028
AGGGGGTAGG	0.978 ± 0.022
AGGGGGTCTG	0.968 ± 0.017
AGGGGGTCTT	1.01 ± 0.016
AGGGGGTGTA	1.02 ± 0.014
AGGGGGTTAT	1.01 ± 0.03
AGGGGGTTCC	0.99 ± 0.033
AGGGGTAAAA	1 ± 0.014
AGGGGTAATT	1.02 ± 0.024
AGGGGTACAG	0.995 ± 0.04
AGGGGTACTG	1.01 ± 0.099
AGGGGTATTG	0.993 ± 0.017
AGGGGTCAAT	0.997 ± 0.0012
AGGGGTCTCA	0.9852 ± 0.0035
AGGGGTCTCT	0.985 ± 0.013
AGGGGTCTGT	1.015 ± 0.0013
AGGGGTGGGA	1.01 ± 0.02
AGGGGTGGGG	1 ± 0.029
AGGGGTGGGT	1.04 ± 0.054
AGGGGTGTTA	0.991 ± 0.019

Sequence	switch fluorescence ratio
AGGGGTTAGG	0.992 ± 0.021
AGGGGTTGGA	1.01 ± 0.036
AGGGGTTTGT	1.02 ± 0.017
AGGGGTTTTT	0.991 ± 0.011
AGGGTAAACT	1.27 ± 0.37
AGGGTAAGGA	1.09 ± 0.18
AGGGTAATCG	1.02 ± 0.011
AGGGTAGGGC	1.02 ± 0.025
AGGGTAGTTG	0.994 ± 0.019
AGGGTATAGA	0.987 ± 0.01
AGGGTATGGG	1.03 ± 0.058
AGGGTATGGT	1.01 ± 0.023
AGGGTATTAT	0.987 ± 0.019
AGGGTCAAGG	0.971 ± 0.046
AGGGTCCCGC	0.9929 ± 0.0024
AGGGTCGCTA	1 ± 0.014
AGGGTCTTTT	1.03 ± 0.053
AGGGTGAAAG	0.992 ± 0.023
AGGGTGAATT	0.9848 ± 0.0075
AGGGTGACAG	0.9566 ± 0.0056
AGGGTGCGGG	1.01 ± 0.018
AGGGTGCTGT	1.02 ± 0.016
AGGGTGGCTT	1.02 ± 0.088
AGGGTGTTAG	1 ± 0.013
AGGGTGTTGG	1 ± 0.017

Sequence	switch fluorescence ratio
AGGGTTAGGC	0.933 ± 0.02
AGGGTTATAG	0.982 ± 0.025
AGGGTTATGG	0.996 ± 0.016
AGGGTTATTC	1 ± 0.013
AGGGTTCGGA	1.015 ± 0.0029
AGGGTTGTGT	1.02 ± 0.029
AGGGTTTACG	1.05 ± 0.045
AGGGTTTGCG	1.04 ± 0.042
AGGGTTTTCT	1 ± 0.012
AGGGTTTTTT	1.02 ± 0.039
AGGTAAATGG	1.02 ± 0.026
AGGTACAGAC	1.12 ± 0.024
AGGTACTCGA	1.05 ± 0.02
AGGTAGATAG	0.948 ± 0.0068
AGGTAGGAAG	0.999 ± 0.034
AGGTAGGATT	1.01 ± 0.05
AGGTAGGGTA	0.992 ± 0.031
AGGTAGGTGT	1.04 ± 0.023
AGGTAGTTC	0.96 ± 0.1
AGGTATGGAG	0.981 ± 0.065
AGGTATTATC	0.968 ± 0.014
AGGTATTGCG	0.994 ± 0.044
AGGTCAGGTT	1.0131 ± 0.0003
AGGTCAGTTT	0.989 ± 0.017
AGGTCCGCTT	1.32 ± 0.039

Sequence	switch fluorescence ratio
AGGTCCGGGT	0.9981 ± 0.0065
AGGTCGAGGG	0.997 ± 0.026
AGGTCGGGAT	1 ± 0.045
AGGTCTAAGG	1 ± 0.022
AGGTCTAGC	0.995 ± 0.017
AGGTCTTATT	1.08 ± 0.094
AGGTCTTCCG	1 ± 0.011
AGGTCTTGGG	0.972 ± 0.027
AGGTGATTAG	0.986 ± 0.044
AGGTGCATAT	1.045 ± 0.0041
AGGTGCTAAT	0.968 ± 0.011
AGGTGGGGCT	0.9811 ± 0.0089
AGGTGGGGGC	1.003 ± 0.0095
AGGTGGGTCT	0.991 ± 0.011
AGGTGGGTTT	0.988 ± 0.044
AGGTGTGATA	1.1 ± 0.051
AGGTGTGGCT	1 ± 0.048
AGGTGTGTCT	1.019 ± 0.0093
AGGTGTTATT	1.005 ± 0.0074
AGGTGTTTTG	1.02 ± 0.0087
AGGTTAAAAT	1.03 ± 0.024
AGGTTAAGCA	1.02 ± 0.0034
AGGTTAGGCT	0.989 ± 0.014
AGGTTCACCC	1.07 ± 0.08
AGGTTCGGAT	0.985 ± 0.056

Sequence	switch fluorescence ratio
AGGTTCTCTG	0.9942 ± 0.0011
AGGTTGAGCT	0.9791 ± 0.0021
AGGTTGAGG	1.01 ± 0.021
AGGTTGCGCG	1.009 ± 0.0079
AGGTTGGATT	0.9706 ± 0.0039
AGGTTGGCGT	0.995 ± 0.029
AGGTTGGGAA	0.944 ± 0.07
AGGTTGGGGG	0.981 ± 0.013
AGGTTGGTCG	0.974 ± 0.064
AGGTTGTGAC	0.989 ± 0.029
AGGTTGTTTG	1.01 ± 0.031
AGGTTTGGAT	0.991 ± 0.078
AGGTTTTCTC	1.02 ± 0.052
AGGTTTTTTA	1.02 ± 0.022
AGTAAAAAAA	0.987 ± 0.033
AGTAAAGCAG	1 ± 0.055
AGTAAAGTTC	1.03 ± 0.028
AGTAACAGTA	1 ± 0.037
AGTAACATTT	0.974 ± 0.069
AGTAACTAGA	1.01 ± 0.046
AGTAAGAGTC	1.01 ± 0.017
AGTAAGATGT	0.976 ± 0.034
AGTAAGCGGC	1.004 ± 0.0094
AGTAATTTTA	1.04 ± 0.04
AGTACACGTG	0.993 ± 0.026

Sequence	switch fluorescence ratio
AGTACATAGT	0.99 ± 0.024
AGTACATGAT	1.02 ± 0.025
AGTACCGGGT	1.04 ± 0.049
AGTACGGGGG	0.992 ± 0.021
AGTAGAAATG	0.991 ± 0.012
AGTAGAATTG	0.966 ± 0.054
AGTAGAGATG	1.03 ± 0.028
AGTAGAGTTT	0.987 ± 0.013
AGTAGCAAGC	3.3 ± 0.17
AGTAGCAGCT	1.03 ± 0.048
AGTAGCGATT	1.06 ± 0.031
AGTAGGCGAG	0.996 ± 0.042
AGTAGGGGAA	0.995 ± 0.035
AGTAGGGTTG	0.957 ± 0.011
AGTAGGTAAA	1.03 ± 0.023
AGTAGGTAGG	0.981 ± 0.03
AGTAGGTAGT	0.968 ± 0.019
AGTAGGTCGG	0.987 ± 0.01
AGTAGTAAGC	1.03 ± 0.023
AGTAGTAAGT	1.01 ± 0.012
AGTAGTTGGG	0.967 ± 0.037
AGTATAAAAA	1.03 ± 0.062
AGTATAGGGA	1.011 ± 0.01
AGTATCTGGG	0.9886 ± 0.0094
AGTATGGAGC	0.9983 ± 0.004

Sequence	switch fluorescence ratio
AGTATGGGGA	0.989 ± 0.016
AGTATGGGGG	1.02 ± 0.015
AGTATGGTGG	0.998 ± 0.013
AGTATGTGCT	0.965 ± 0.024
AGTATGTGTC	1.01 ± 0.042
AGTATTCTG	0.961 ± 0.04
AGTATTGGGT	0.998 ± 0.035
AGTATTTCGT	0.987 ± 0.031
AGTATTTTTA	1.01 ± 0.012
AGTATTTTTG	1.01 ± 0.032
AGTCCGATTT	1.03 ± 0.061
AGTCCTTAGC	1 ± 0.071
AGTCGGGGGC	1.03 ± 0.04
AGTCGGGGGT	0.99 ± 0.024
AGTCGGGTCT	1.05 ± 0.083
AGTCGTTCAG	0.949 ± 0.023
AGTCTAGTGG	0.985 ± 0.027
AGTCTCTCAT	0.992 ± 0.03
AGTCTGCTGT	0.984 ± 0.037
AGTGACATCG	1.14 ± 0.076
AGTGAGAGGA	0.9804 ± 0.007
AGTGAGAT	0.9943 ± 0.0097
AGTGAGGGTA	0.983 ± 0.031
AGTGAGGTTG	0.977 ± 0.049
AGTGATGGGG	0.987 ± 0.037

Sequence	switch fluorescence ratio
AGTGCAGGCA	1 ± 0.034
AGTGCATTTT	1.06 ± 0.097
AGTGCCATTG	0.9627 ± 0.0067
AGTGCGGGTT	1.02 ± 0.025
AGTGGAAAC	1.0032 ± 0.00099
AGTGGAGGAC	1.02 ± 0.012
AGTGGCAAGG	0.9943 ± 0.0063
AGTGGCACGG	1 ± 0.029
AGTGGCTTTG	0.986 ± 0.019
AGTGGGAAAT	0.994 ± 0.015
AGTGGGAACA	1.01 ± 0.017
AGTGGGAATC	0.989 ± 0.032
AGTGGGAGGA	0.996 ± 0.02
AGTGGGATGG	1.03 ± 0.037
AGTGGGATTT	0.993 ± 0.039
AGTGGGGAAT	1.01 ± 0.049
AGTGGGGACG	1.031 ± 0.01
AGTGGGGATC	1.03 ± 0.035
AGTGGGGGAT	0.988 ± 0.028
AGTGGGGGTC	1.02 ± 0.021
AGTGGGTAGA	1.04 ± 0.049
AGTGGGTTAG	1.016 ± 0.0012
AGTGGTACTA	0.991 ± 0.038
AGTGGTGGAG	1 ± 0.04
AGTGGTGGTA	0.998 ± 0.018
